From patent publication US20150351390A1, “COMPOSITIONS AND METHODS FOR AUXIN-ANALOG CONJUGATION” (PIONEER HI-BRED INTERNATIONAL, INC., priority 2012, published 2015)

B1: AtGH3-4: GH3 protein, accession Q9LQ68 (protein, listed as Arabidopsis thaliana)
chain: MAVDSLLQSGMASPTTSETEVKALKFIEEITRNPDSVQEKVLGEILSRNSNTEYLKRFDLNGAVDRKSFKSKVPVVIYEDLKTDIQRISNGDRSPILSSHPITEFLTSSGTSAGERKLMPTIEEDINRRQLLGNLLMPVMNLYVPGLDKGKGLYFLFVKSESTTSGGLPARPALTSYYKSDYFRTSDSDSVYTSPKEAILCCDSSQSMYTQMLCGLLMRHEVNRLGAVFPSGLLRAISFLQNNWKELSQDISTGTLSSKIFDHAIKTRMSNILNKPDQELAEFLIGVCSQENWEGIITKIWPNTKYLDVIVTGAMAEYIPMLEYYSGGLPMASMIYASSESYFGINLNPMCKPSEVSYTIFPNMAYFEFLPHNHDGDGGVEATSLVELADVEVGKEYELVITTYAGLYRYRVGDILRVTGFHNSAPQFKFIRRENVLLSIESDKTDEADLQKAVENASRLLAEQGTRVIEYTSYADTKTIPGHYVIYWELLSRDQSNALPSDEVMAKCCLEMEESLNAVYRQSRVSDKSIGPLEIRVVQNGTFEELMDFSISRGSSINQYKVPRCVSLTPIMKLLDSRVVSAHFSPSLPHWSPERRH
B2: AtGH3-6: GH3 protein, accession Q9LSQ4 (protein, listed as Arabidopsis thaliana)
chain: MPEAPKIAALEVSDESLAEKNKNKLQFIEDVTTNADDVQRRVLEEILSRNADVEYLKRHGLEGRTDRETFKHIMPVVTYEDIQPEINRIANGDKSQVLCSNPISEFLTSSGTSGGERKLMPTIEEELDRRSLLYSLLMPVMDQFVPGLDKGKGMYFLFIKSESKTPGGLPARPVLTSYYKSSHFKNRPYDPYTNYTSPNQTILCSDSYQSMYSQMLCGLCQHKEVLRVGAVFASGFIRAIKFLEKHWPELARDIRTGTLSSEITDSSVREAVGEILKPDPKLADFVESECRKTSWQGIITRLWPNTKYVDVIVTGTMSQYIPTLDYYSNGLPLVCTMYASSECYFGVNLRPLCKPSEVSYTLIPNMAYFEFLPVHRNSGVTSSISLPKALTEKEQQELVDLVDVKLGQEYELVVTTYAGLYRYRVGDVLSVAGFKNNAPQFSFICRKNVVLSIDSDKTDEVELQNAVKNAVTHLVPFDASLSEYTSYADTSSIPGHYVLFWELCLNGNTPIPPSVFEDCCLTIEESLNSVYRQGRVSDKSIGPLEIKMVESGTFDKLMDYAISLGASINQYKTPRCVKFAPIIELLNSRVVDSYFSPKCPKWSPGHKQWGSN
B3: GmGH3-21: GH3 protein, accession CAA42636 (protein)
chain: MAIATCDHDKNAKALQFIEDMTQNTESVQERVLAEILSQNSQTEYLKRFELNGATDRDTFKSKVPVVSYDDLKHDIHRIANGDRSPILCAHPISEFLTSSGTSAGERKLMPTIRQEMDRRQLIFSLPMPVMNQYVTDMDKGKALIFLFTKAEQKTPSGLVARPVSASMYKSDQFKNRPYDPYNVYTSPDEAILCPDSFQSMYTQMLCGLIMRHQVLRVGANFASGLLRSIHLLQLNWAQLSHDISTGTLNPKITDPAIKQRMTQILKPDPELAEFIVKECSGENWERIIPRIWPNTKYVEVVVTGAMAQYVPTLDYYSGGLPLASNIYGSSECFFGINLNPFCNPSDVSYTIMPNMGYFEFLPQDHDDASSSSGSSFTLSRLIDLDDVELGKSYEIVVTTYSGLCRYRVGDILRVTGFHNTAPQFSFVRRKNVLLSIDSDKTDEAELQNAVEKASVLLKEFKTSVVEYTSFADTKSIPGHYVIYWELLMKDSSNAPTTEALEQCCLTMEESLNAVYRQGRVADHSIGPLEIRVVKNGTFEELMDYAISRGASISQYKVPRCVTFTPITELLDSRVESVHFSPSEPHWTPERRR
modifications: Glycine max
B4: AtGH3-2: GH3 protein, accession AEE86787 (protein, listed as Arabidopsis thaliana)
chain: MAVDSPLQSRMVSATTSEKDVKALKFIEEMTRNPDSVQEKVLGEILTRNSNTEYLKRFDLDGVVDRKTFKSKVPVVTYEDLKPEIQRISNGDCSPILSSHPITEFLTSSGTSAGERKLMPTIEEDLDRRQLLYSLLMPVMNLYVPGLDKGKGLYFLFVKSESKTSGGLPARPVLTSYYKSDHFKRRPYDPYNVYTSPNEAILCSDSSQSMYAQMLCGLLMRHEVLRLGAVFASGLLRAISFLQNNWKELARDISTGTLSSRIFDPAIKNRMSKILTKPDQELAEFLVGVCSQENWEGIITKIWPNTKYLDVIVTGAMAQYIPTLEYYSGGLPMACTMYASSESYFGINLKPMCKPSEVSYTIMPNMAYFEFLPHNHDGDGAAEASLDETSLVELANVEVGKEYELVITTYAGLYRYRVGDILRVTGFHNSAPQFKFIRRKNVLLSVESDKTDEAELQKAVENASRLFAEQGTRVIEYTSYAETKTIPGHYVIYWELLGRDQSNALMSEEVMAKCCLEMEESLNSVYRQSRVADKSIGPLEIRVVRNGTFEELMDYAISRGASINQYKVPRCVSFTPIMELLDSRVVSAHFSPSLPHWSPERRR
B5: AtGH3-5: GH3 protein, accession O81829 (protein, listed as Arabidopsis thaliana)
chain: MPEAPKKESLEVFDLTLDQKNKQKLQLIEELTSNADQVQRQVLEEILTRNADVEYLRRHDLNGRTDRETFKNIMPVITYEDIEPEINRIANGDKSPILSSKPISEFLTSSGTSGGERKLMPTIEEELDRRSLLYSLLMPVMSQFVPGLENGKGMYFLFIKSESKTPGGLPARPVLTSYYKSSHFKERPYDPYTNYTSPNETILCSDSYQSMYSQMLCGLCQHQEVLRVGAVFASGFIRAIKFLEKHWIELVRDIRTGTLSSLITDPSVREAVAKILKPSPKLADFVEFECKKSSWQGIITRLWPNTKYVDVIVTGTMSQYIPTLDYYSNGLPLVCTMYASSECYFGVNLRPLCKPSEVSYTLIPSMAYFEFLPVHRNNGVTNSINLPKALTEKEQQELVDLVDVKLGQEYELVVTTYAGLCRYRVGDLLRVTGFKNKAPQFSFICRKNVVLSIDSDKTDEVELQNAVKNAVTHLVPFDASLSEYTSYADTSSIPGHYVLFWELCLDGNTPIPPSVFEDCCLAVEESFNTVYRQGRVSDKSIGPLEIKIVEPGTFDKLMDYAISLGASINQYKTPRCVKFAPIIELLNSRVVDSYFSPKCPKWVPGHKQWGSN
B6: PtGH3-7: GH3 protein, accession EEE84166 (protein, listed as Populus trichocarpa)
chain: MLPVFDPNDNEAGLKLLEDLTNNACQIQQQVLEEILATNLHTEYLKSFLNGDSGKENFKNKVPIVNYEDIKPCIERIANGEPSSIISTQPITELLTSSGTSGGQPKIMPSTAEELERKTFFYNLLVPVMNKYVDGLDQGKAMYLLFIKPEISTPSGLMARPVLTSYYKSNNFRNRAFNRYNVYTSPDETILCSDSKQSMYCQLLCGLVQRDEVLRVGAIFASAFLRAIKFLEEYLKELCSNIRTGSVSDWITDPNCRNAVLSILSKPNSELADLIEDECSGKSWEGIIKKLWPRTKYIEVIVTGSMAQYIPTLEFYSGGLPLVSTMYGSSECYLGINFKPLSNPYDVSYTLLPNMAYFEFLPVDNNHKEVVPDVQCNGVSVTDRNGKEKVEAVDLVDVKLGHYYELIVTTFTGLYRYRVGDILMVTGFYNNAPQFRFVHRRNVVLSIDTDKTNEEDLLKAVTQAKVLLEPLGFLLTEYTSFADTASIPGHYVLFWELKMRGTNDLPELDPVIMEQCCSIVEESLDSVYRRCRKKDKSIGPLEVRVVTHGTFDALMDFCVSQGSSVNQYKTPRCIKSEEALKILDSRVVGRFSSNKTPFWEPFRIET
B7: CcGH3: GH3 protein, accession AAS02074 (protein)
chain: MAVDSVLSSPLGPPACEKDAKALQFIEEMTRNADAVQQRVLDEILTRNSQTEYLKRFKLDGVSDRETFKSRIPVVTYEDLQPEIQRIANGDRSPILSAHPISEFLTSSGTSAGERKLMPTIKEELDRRQLLYSLLMPVMNLYVPGLDKGKGLYFLFIKSETKTPGGLLARPVLTSYYKSEHFKSRPHDPYNVYTSPNEAILCADSFQSMYTQMLCGLYEREQVLRLGAVFASGLVRAIRFLQLHWPQLAHDIRTGNLNPQITNLSLCERMGKIMRPNPELADFVAGECCKENWEGIITRIWPKTKYLDVIVTGAMAQYIPTLDYYSGGLPKACTMYAASECYFGLNLNPMCKPSEVSYTIMPNMGYFEFLPHDSTTTNSSPTNLVDLVDVEVGKEYELVITTYAGLYRYRVGDILRVTGFHNSAPQFHFVRRKNVLLSIDADKTDEAELQKAVENASKLLREFNTSVVEYTSYADTKTIPGHYVIYWELLMKDLKNSPSDEVLNKCCLAMEESLNTVYRQGRVACNSIGPLEIRVVKNGTFEELMDYAISRGASINQYKVPRCVNFAPILELLDSRVMSSHFSPSLPQWTPERRR
modifications: Capsicum chinense

Columns and labels:
[1] = LC-MS assay of GH3 conjugation of IAA with Asp or Glu; assay type: biochemical; settings: for kcat (hrs−1) IAA-Asp: conjugation of IAA with Asp by recombinant GH3 protein, IAA-Asp product by LC-MS; for kcat (hrs−1) IAA-Glu: conjugation of IAA with Glu by recombinant GH3 protein, IAA-Glu product by LC-MS
Procedure, shortened: (§1)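 N-terminal His-tagged GH3 homologs, expressed in E. coli C41(DE3) and Ni-NTA purified, at 44 to 164 μg/mL incubated 3 h at 30 °C in 20 mM Tris-HCl pH 8.0, 5 mM MgCl2, 1 mM DTT, 5 mM ATP, 5 mM auxin (IAA, 2,4-D or dicamba) and 5 mM Asp or Glu. Conjugates quantified by LC-MS against standards after MeOH precipitation; kinetics from Michaelis-Menten fits of initial velocities.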

[2] = LC-MS assay of GH3 conjugation of 2,4-D with Asp or Glu; assay type: biochemical; settings: 5 mM 2,4-D substrate; for kcat (hrs−1) 2,4-D-Asp: conjugation of 2,4-D with Asp by recombinant GH3 protein, 2,4-D-Asp product by LC-MS; for kcat (hrs−1) 2,4-D-Glu: conjugation of 2,4-D with Glu by recombinant GH3 protein, 2,4-D-Glu product by LC-MS
Procedure, shortened: as §1

Molecule	kcat (hrs−1) IAA-Asp [1] [h⁻¹]	kcat (hrs−1) IAA-Glu [1] [h⁻¹]	kcat (hrs−1) 2,4-D-Asp [2] [h⁻¹]	kcat (hrs−1) 2,4-D-Glu [2] [h⁻¹]
B1	414.602	37.932	2.032	0.594
B2	447.107	14.154	2.136	0.598
B3	1087.519	1075.524	27.468	22.910
B4	511.761	30.640	1.200	0.131
B5	578.727	68.086	2.309	0.795
B6	38.668	450.548	0.547	3.487
B7	414.234	15.608	2.517	0.577
